Experimental data as given in IntAct's records for PubMed 27487388.

B1: Microsomal triglyceride transfer protein large subunit (Homo sapiens), P55157 (parent)
chain: MILLAVLFLCFISSYSASVKGHTTGLSLNNDRLYKLTYSTEVLLDRGKGKLQDSVGYRISSNVDVALLWRNPDGDDDQLIQITMKDVNVENVNQQRGEKSIFKGKSPSKIMGKENLEALQRPTLLHLIHGKVKEFYSYQNEAVAIENIKRGLASLFQTQLSSGTTNEVDISGNCKVTYQAHQDKVIKIKALDSCKIARSGFTTPNQVLGVSSKATSVTTYKIEDSFVIAVLAEETHNFGLNFLQTIKGKIVSKQKLELKTTEAGPRLMSGKQAAAIIKAVDSKYTAIPIVGQVFQSHCKGCPSLSELWRSTRKYLQPDNLSKAEAVRNFLAFIQHLRTAKKEEILQILKMENKEVLPQLVDAVTSAQTSDSLEAILDFLDFKSDSSIILQERFLYACGFASHPNEELLRALISKFKGSIGSSDIRETVMIITGTLVRKLCQNEGCKLKAVVEAKKLILGGLEKAEKKEDTRMYLLALKNALLPEGIPSLLKYAEAGEGPISHLATTALQRYDLPFITDEVKKTLNRIYHQNRKVHEKTVRTAAAAIILNNNPSYMDVKNILLSIGELPQEMNKYMLAIVQDILRFEMPASKIVRRVLKEMVAHNYDRFSRSGSSSAYTGYIERSPRSASTYSLDILYSGSGILRRSNLNIFQYIGKAGLHGSQVVIEAQGLEALIAATPDEGEENLDSYAGMSAILFDVQLRPVTFFNGYSDLMSKMLSASGDPISVVKGLILLIDHSQELQLQSGLKANIEVQGGLAIDISGAMEFSLWYRESKTRVKNRVTVVITTDITVDSSFVKAGLETSTETEAGLEFISTVQFSQYPFLVCMQMDKDEAPFRQFEKKYERLSTGRGYVSQKRKESVLAGCEFPLHQENSEMCKVVFAPQPDSTSSGWF
partner: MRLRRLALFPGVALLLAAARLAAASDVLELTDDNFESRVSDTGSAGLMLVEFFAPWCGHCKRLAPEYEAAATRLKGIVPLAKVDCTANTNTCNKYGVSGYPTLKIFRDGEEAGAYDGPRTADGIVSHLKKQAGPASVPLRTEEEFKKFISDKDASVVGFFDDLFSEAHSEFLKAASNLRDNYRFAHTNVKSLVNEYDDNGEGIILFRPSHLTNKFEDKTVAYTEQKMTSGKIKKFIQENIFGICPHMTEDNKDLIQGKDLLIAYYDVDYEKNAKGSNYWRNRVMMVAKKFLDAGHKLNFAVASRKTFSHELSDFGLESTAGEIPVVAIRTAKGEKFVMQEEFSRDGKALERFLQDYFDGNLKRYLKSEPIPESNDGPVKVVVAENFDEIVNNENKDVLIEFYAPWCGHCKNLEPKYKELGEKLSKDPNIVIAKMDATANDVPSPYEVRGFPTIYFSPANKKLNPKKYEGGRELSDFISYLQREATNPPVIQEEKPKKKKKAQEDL
B2: Microsomal triglyceride transfer protein large subunit (Homo sapiens), P55157 (parent)
chain: B1 chain

Variants of: B1
Details: with pdia3_chlae PDIA3, Q4VIT4

Row | effect of a mutation on the interaction | Variant
1 | disrupting interaction strength | D361Y

Variants of: B1
Details: with pdia3_chlae PDIA3, Q4VIT4
Remark: another data set of the same source

Row | effect of a mutation on the interaction | Variant
2 | decreasing interaction strength | D361Y
3 | with no effect | D361E

Variants of: B2
Details: with apob_human APOB

Row | effect of a mutation on the interaction | Variant
4 | with no effect | D361Y
5 | with no effect | D361E

Variants of: B2
Details: with apob_human APOB
Remark: another data set of the same source

Row | effect of a mutation on the interaction | Variant
6 | increasing interaction strength | D361E
